What was measured:
[1] = biological target: T1, hCdc5 DNA-binding domain (aa 1-500) (Homo sapiens, UniProt Q99459 SEQ:1-500); test: EMSA; 1 nM DNA, 2.5-40 nM protein; 10 mM HEPES pH 7.8, 75 mM KCl, 2.5 mM MgCl2, poly(dI-dC), room temperature; conditions: tags: His6 fusion (pET29c(+), E. coli BL21(DE3), Ni-NTA); chain copies: forms homodimers by glutaraldehyde cross-linking in vitro; label: 32P
[2] = biological target: hCdc5 W31G W53G W82G mutant (Homo sapiens, UniProt Q99459 SEQ:1-500, W31G,W53G,W82G); test: EMSA; data not shown; conditions: label: 32P
Sequence of hCdc5 W31G W53G W82G mutant (Q99459 1-500 W31G/W53G/W82G): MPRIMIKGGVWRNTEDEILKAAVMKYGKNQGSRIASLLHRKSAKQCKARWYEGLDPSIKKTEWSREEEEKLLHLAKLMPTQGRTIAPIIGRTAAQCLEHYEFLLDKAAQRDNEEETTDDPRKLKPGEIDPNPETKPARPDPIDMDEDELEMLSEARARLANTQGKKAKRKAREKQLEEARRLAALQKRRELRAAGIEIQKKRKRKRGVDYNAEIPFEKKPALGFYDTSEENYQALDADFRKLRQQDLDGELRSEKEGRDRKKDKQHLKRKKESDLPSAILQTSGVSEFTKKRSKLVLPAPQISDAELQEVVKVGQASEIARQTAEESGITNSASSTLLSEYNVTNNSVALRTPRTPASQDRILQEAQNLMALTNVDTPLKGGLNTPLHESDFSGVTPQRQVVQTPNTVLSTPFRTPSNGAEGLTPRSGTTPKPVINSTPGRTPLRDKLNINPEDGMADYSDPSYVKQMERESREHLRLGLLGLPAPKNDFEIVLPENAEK

[3] = biological target: T1, hCdc5 DNA-binding domain (aa 1-500); test: EMSA; text: abolished; conditions: tags: His6 fusion (pET29c(+), E. coli BL21(DE3), Ni-NTA); chain copies: forms homodimers by glutaraldehyde cross-linking in vitro; label: 32P
Procedure: Labeled oligonucleotides bearing substitutions in each of the bases comprising the consensus sequence were incubated with recombinant His₆-hCdc5 and gel shift assays were carried out as described above to determine the binding affinities for the mutated sequences. […] Substitutions at any other position abolished DNA-protein binding implicating these residues as critical for the interaction.

[4] = biological target: T1, hCdc5 DNA-binding domain (aa 1-500); test: EMSA; data not shown; protein construct not specified; conditions: tags: His6 fusion (pET29c(+), E. coli BL21(DE3), Ni-NTA); chain copies: forms homodimers by glutaraldehyde cross-linking in vitro
[5] = biological target: T1, hCdc5 DNA-binding domain (aa 1-500); test: EMSA; amino terminus of hCdc5; clones 6 and 30 overlap; clone 6 printed as … in table but SEQ 15 given; conditions: tags: His6 fusion (pET29c(+), E. coli BL21(DE3), Ni-NTA); chain copies: forms homodimers by glutaraldehyde cross-linking in vitro
Excerpt: (§1) To determine whether hCdc5 interacts with specific genomic sequences through direct DNA binding, we first surveyed the 12 genomic sequences (totaling ˜36,200 bp) identified by binding selection in yeast for the synthetic consensus binding sequence identified by cyclic amplification and selection in the example above. An exact match was not found, although this was not surprising as the likelihood of finding a unique 12 bp sequence is 6×10⁻⁸, and is predicted to occur by chance ˜180 times in the human genome. We then used the information obtained by scanning mutagenesis to look for sites containing the core “ANCA” motif flanked by palindromes within the genomic clones. […] Complementary oligonucleotides representing the sequences in Table 2 flanked by the non-random oligo flanking sequences used in the oligonucleotide selection experiments described above were used for the gel shift assays. Two of these active binding sites were found in the two clones which represented overlapping sequences from the same region of the genome (clones 6 and 30). All 3 sites shared features of the consensus binding sequence: a core “ANCA” motif, AT-rich flanking palindromes, and a distance between core and palindromes of no more than 3 bp.

[6] = biological target: T1, hCdc5 DNA-binding domain (aa 1-500); test: EMSA; amino terminus of hCdc5; conditions: tags: His6 fusion (pET29c(+), E. coli BL21(DE3), Ni-NTA); chain copies: forms homodimers by glutaraldehyde cross-linking in vitro
Excerpt: as §1

[7] = biological target: T1, hCdc5 DNA-binding domain (aa 1-500); test: EMSA; single-stranded sense; conditions: tags: His6 fusion (pET29c(+), E. coli BL21(DE3), Ni-NTA); chain copies: forms homodimers by glutaraldehyde cross-linking in vitro
[8] = biological target: T1, hCdc5 DNA-binding domain (aa 1-500); test: EMSA; single-stranded antisense; conditions: tags: His6 fusion (pET29c(+), E. coli BL21(DE3), Ni-NTA); chain copies: forms homodimers by glutaraldehyde cross-linking in vitro

T1 sequence (Q99459 1-500): as the sequence (Q99459 1-500 W31G/W53G/W82G) above, with G31W, G53W, G82W counted along it

B1: hCdc5 consensus site (dsDNA)
DNA 1: GATTTAACATAA
DNA 2: TTATGTTAAATC
In the case of B1, the Kd [1] is reported as about 10 nM and the binding result [2] is reported as “no binding”.

B2: consensus mutant position 3 (dsDNA)
DNA 1: GAGTTAACATAA
DNA 2: TTATGTTAACTC
With B2 the binding signal [3] was 0.2 fraction of control.

B3: consensus mutant position 4 (dsDNA)
DNA 1: GATGTAACATAA
DNA 2: TTATGTTACATC
In the case of B3, the binding signal [3] is reported as 0.2 fraction of control.

B4: consensus mutant position 8 (dsDNA)
DNA 1: GATTTAATATAA
DNA 2: TTATATTAAATC
B4 was tested, and the binding signal [3] was 0.2 fraction of control.

B5: consensus mutant position 9 (dsDNA)
DNA 1: GATTTAACCTAA
DNA 2: TTAGGTTAAATC
In the case of B5, the binding signal [3] is reported as 0.2 fraction of control.

B6: consensus mutant position 10 (dsDNA)
DNA 1: GATTTAACAGAA
DNA 2: TTCTGTTAAATC
For B6, the binding signal [3] was 0.2 fraction of control.

B7: consensus mutant position 11 (dsDNA)
DNA 1: GATTTAACATCA
DNA 2: TGATGTTAAATC
With B7 the binding signal [3] was 0.2 fraction of control.

B8: consensus mutant position 6 (dsDNA)
DNA 1: GATTTCACATAA
DNA 2: TTATGTGAAATC
In the case of B8, the binding signal [3] is reported as 0.1 fraction of control.

B9: new-palindrome mutant GATATAACATAT (dsDNA)
DNA 1: GATATAACATAT
DNA 2: ATATGTTATATC
B9: no binding [4].

B10: new-palindrome mutant GATGTAACATAC (dsDNA)
DNA 1: GATGTAACATAC
DNA 2: GTATGTTACATC
B10: no binding [4].

B11: genomic clone 6/30 site (dsDNA)
DNA 1: CGCTCGAGGGATCCGAATTCAATAAAATCAAAATTTCTAGAAAGCTTGTCGACGC
DNA 2: GCGTCGACAAGCTTTCTAGAAATTTTGATTTTATTGAATTCGGATCCCTCGAGCG
B11: binds [5].

B12: genomic clone 12 site 1 (dsDNA)
DNA 1: CGCTCGAGGGATCCGAATTCAAAGGGGAACACTTTTCTAGAAAGCTTGTCGACGC
DNA 2: GCGTCGACAAGCTTTCTAGAAAAGTGTTCCCCTTTGAATTCGGATCCCTCGAGCG
B12: binds [6].

B13: genomic clone 12 site 2 (dsDNA)
DNA 1: CGCTCGAGGGATCCGAATTCCCCCCCTTTAAACCAGCGTGGAGGGGGGTCTAGAAAGCTTGTCGACGC
DNA 2: GCGTCGACAAGCTTTCTAGACCCCCCTCCACGCTGGTTTAAAGGGGGGGAATTCGGATCCCTCGAGCG
B13: no binding [6].

B14: genomic clone 25 site (dsDNA)
DNA 1: CGCTCGAGGGATCCGAATTCAATTCCCCGGATCATTGCAAACAATTTCTAGAAAGCTTGTCGACGC
DNA 2: GCGTCGACAAGCTTTCTAGAAATTGTTTGCAATGATCCGGGGAATTGAATTCGGATCCCTCGAGCG
B14: no binding [6].

B15: genomic clone 8 site (dsDNA)
DNA 1: CGCTCGAGGGATCCGAATTCAATGAACGAATCAAATTTCTAGAAAGCTTGTCGACGC
DNA 2: GCGTCGACAAGCTTTCTAGAAATTTGATTCGTTCATTGAATTCGGATCCCTCGAGCG
B15: no binding [6].

GATTTAACATAA (ssDNA) [consensus site single-stranded sense]: no binding [7].

TTATGTTAAATC (ssDNA, [NONE]) [consensus site single-stranded antisense]: no binding [8].

Reference: patent US20020127702, “Methods and compositions for regulating cell cycle progression” (published 2002)
